Experimental data from article PMC3678299 (FEBS Open Bio, 2013).

Target: the molecule itself
Experiment: cross-linking; chemical cross-linking in TrkA-transfected PC12 cells, with or without LPC; data not shown

B1: tropomyosin-related kinase A (TrkA) (receptor)
chain: not shown
How did the “stoichiometry N” value turn out when B1 was run?
Its value is 2.
